We go through 7 molecules from patent US20100197768A1 (UNIVERSITY OF ROCHESTER, published 2010).

B3: N1/2 (CD1-NCD1, a.a. 1-208 of hA3G) (other, human, UniProt Q9HC16 1-208, looked up)
chain: MKPHFRNTVERMYRDTFSYNFYNRPILSRRNTVWLCYEVKTKGPSRPPLDAKIFRGQVYSELKYHPEMRFFHWFSKWRKLHRDQEYEVTWYISWSPCTKCTRDMATFLAEDPKVTLTIFVARLYYFWDPDYQEALRSLCQKRDGPRATMKIMNYDEFQHCWSKFVYSQRELFEPWNNLPKYYILLHIMLGEILRHSMDPPTFTFNFNN
notes: range 1-208; Expressed in 293T cells; tested in RNase A treated cell extracts; also called N-terminal half of hA3G; not shown: N-terminal tag HA, V5, EGFP-HA or EGFP-V5, differing by experiment
B4: CD1 (catalytic domain 1, a.a. 1-143 of hA3G) (other, human, UniProt Q9HC16 1-143, looked up, not shown: small tags and cut ends)
chain: MKPHFRNTVERMYRDTFSYNFYNRPILSRRNTVWLCYEVKTKGPSRPPLDAKIFRGQVYSELKYHPEMRFFHWFSKWRKLHRDQEYEVTWYISWSPCTKCTRDMATFLAEDPKVTLTIFVARLYYFWDPDYQEALRSLCQKRD
notes: range 1-143; also called N-terminal catalytic domain
B5: NCD1 (non-catalytic domain 1, a.a. 144-208 of hA3G) (other, human, UniProt Q9HC16 144-208, looked up)
chain: GPRATMKIMNYDEFQHCWSKFVYSQRELFEPWNNLPKYYILLHIMLGEILRHSMDPPTFTFNFNN
notes: range 144-208; not shown: N-terminal tag HA, V5, EGFP-HA or EGFP-V5, differing by experiment

Series [1] concerns the target B5. The series is described as follows: co-IP of HA and V5 tagged domains, V5 IP, HA western.
Description: (§1) Twenty-four hours after transfection the cells were harvested and cell extracts were analyzed by co-immunoprecipitation (co-IP). Extracts were treated with RNase A prior to IP to eliminate interactions that were due to RNA bridging.
(§2) Co-immunoprecipitation analysis. […] 24 hours after transfection cell extracts were harvested in NP-40 lysis buffer (50 mM Tris pH 7.4, 150 mM NaCl, 0.1% NP-40) with Complete® Mini EDTA free protease inhibitors (Roche). Cell extracts were treated with 40 μg/mL of RNase A for 1 hour at 37° C. and subsequently pre-cleared with Protein A agarose beads (Roche) tumbling for 1 hour at 4° C. The pre-cleared extracts were split and added to a Protein A bead slurry±V5 (Invitrogen) or GFP antibody (Clontech) for immunoprecipitation by tumbling overnight at 4° C. The beads were washed 3 times with NP-40 lysis buffer and eluted 3 times with 1×Treat (50 mM Tris pH 7.4, 10 mM DTT, 0.1% SDS).
Series [2] concerns the molecule itself. The series is described as follows: co-IP of HA and V5 tagged forms, V5 IP, HA western.
Description: as §1, §2
Series [3] addresses T1, Protein A (agarose beads, no antibody) (UniProt P38507 37-477).
T1 construct: Bead-only control of the immunoprecipitations; also called Protein A beads
Description: IP with Protein A beads alone.
Description: as §1, §2

Series [4] concerns the molecule itself. Description: co-IP of HA and V5 tagged forms, V5 IP, HA western, RNase A treated 293T extracts.
Description: as §1, §2
Series [5] addresses T2, HIV-1 p55 Gag polyprotein (HIV-1, UniProt P12493 2-500).
T2 construct: Expressed in 293T cells co-transfected with HIV-1 DNA; detected with a p24 antibody
Description: V5 IP of hA3G domain, p24 western for Gag, RNase A treated 293T extracts.
Description: Co-IP experiments were performed using various hA3G domains and Gag or Vif following RNase A digestion of cell extracts.
as §2

Series [6] deals with the molecule itself. The series is described as follows: summary of the co-IP results of Example 2.
Description: as §1, §2
In series [7] the target is B4. The series is described as follows: co-IP of HA and V5 tagged domains, V5 IP, HA western.
Description: as §1, §2
A further series concerns the target T3, EGFP-HA tagged Vif (HIV-1, UniProt P12504 1-192).
T3 construct: Expressed in 293T cells from pIRES-P; also called EGFP-HA-Vif; HIV-1 Vif; not shown: N-terminal EGFP-HA tag
The series is described as follows: GFP antibody IP of EGFP-HA-Vif, western for the hA3G domain, RNase A treated 293T extracts.

The target in series [8] is B3. Description: co-IP of HA and V5 tagged domains, V5 IP, HA western.
Description: as §1, §2

T3 sequence (P12504 whole entry): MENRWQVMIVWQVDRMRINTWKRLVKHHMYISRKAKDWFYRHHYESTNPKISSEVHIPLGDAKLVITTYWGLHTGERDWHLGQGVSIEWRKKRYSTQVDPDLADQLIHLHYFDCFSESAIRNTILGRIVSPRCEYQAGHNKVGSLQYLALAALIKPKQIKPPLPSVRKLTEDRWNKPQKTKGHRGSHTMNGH

B1: NCD2 (non-catalytic domain 2, a.a. 337-384 of hA3G) (other, human, UniProt Q9HC16 337-384, looked up)
chain: IMTYSEFKHCWDTFVDHQGCPFQPWDGLDEHSQDLSGRLRAILQNQEN
notes: range 337-384; not shown: N-terminal tag HA, V5, EGFP-HA or EGFP-V5, differing by experiment
With B1, the binding result in series [1], in [2] and in series [3] was “no binding” each time.

B2: C3/4 (larger C-terminal domain lacking only CD1, a.a. 144-384 of hA3G) (other, human, UniProt Q9HC16 144-384, looked up)
chain: GPRATMKIMNYDEFQHCWSKFVYSQRELFEPWNNLPKYYILLHIMLGEILRHSMDPPTFTFNFNNEPWVRGRHETYLCYEVERMHNDTWVLLNQRRGFLCNQAPHKHGFLEGRHAELCFLDVIPFWKLDLDQDYRVTCFTSWSPCFSCAQEMAKFISKNKHVSLCIFTARIYDDQGRCQEGLRTLAEAGAKISIMTYSEFKHCWDTFVDHQGCPFQPWDGLDEHSQDLSGRLRAILQNQEN
notes: range 144-384; not shown: N-terminal tag HA, V5, EGFP-HA or EGFP-V5, differing by experiment
As to B2, the binding result in series [4] is given as “binds”; in [3] it was “no binding”.
Turning to B3, the binding result in [2] and in [3] was “no binding” in each case.
For the molecule B4, the binding result in series [2], in [5] and in [3] was “no binding” in each case.
Regarding B5, the binding result in series [2] and in series [3] was “no binding” in each case.

B6: CD2 (catalytic domain 2, a.a. 209-336 of hA3G) (other, human, UniProt Q9HC16 209-336, looked up)
chain: EPWVRGRHETYLCYEVERMHNDTWVLLNQRRGFLCNQAPHKHGFLEGRHAELCFLDVIPFWKLDLDQDYRVTCFTSWSPCFSCAQEMAKFISKNKHVSLCIFTARIYDDQGRCQEGLRTLAEAGAKIS
notes: also called C-terminal catalytic domain; not shown: N-terminal tag HA, V5, EGFP-HA or EGFP-V5, differing by experiment
As to B6, the binding result is on record as “binds” in series [6], “no binding” in [7], “no binding” in series [5] and “no binding” in series [3].

B7: C1/2 (CD2-NCD2, a.a. 209-384 of hA3G) (other, human, UniProt Q9HC16 209-384, looked up)
chain: EPWVRGRHETYLCYEVERMHNDTWVLLNQRRGFLCNQAPHKHGFLEGRHAELCFLDVIPFWKLDLDQDYRVTCFTSWSPCFSCAQEMAKFISKNKHVSLCIFTARIYDDQGRCQEGLRTLAEAGAKISIMTYSEFKHCWDTFVDHQGCPFQPWDGLDEHSQDLSGRLRAILQNQEN
notes: Self co-IP was done with and without EGFP (±EGFP); also called C-terminal half of hA3G; not shown: N-terminal tag HA, V5, EGFP-HA or EGFP-V5, differing by experiment
Consider B7, for which the binding result was “no binding” with EGFP-HA tagged Vif; “binds” in series [4]; “no binding” in series [8]; “no binding” in [5]; “no binding” in series [3].
